What follows are binders tested against acetylcholine receptor (assay: SPR, peptide at 10 uM on acetylcholine receptor).

Binder	Binding affinity (RU)
RPSAK [5mer-966]	32
KIHEK [5mer-659]	22
RPHAK [5mer-668]	27
KTWEK [5mer-665]	26
KIANR [5mer-961]	32
RNPER [5mer-669]	24
KKWGR [5mer-658]	31
RHDWR [5mer-666]	18
KPTWK [5mer-956]	19
KTTWK [5mer-653]	16
RFTVR [5mer-651]	11
KATGR [5mer-656]	13
RKMAR [5mer-953]	23
RIWKR [5mer-962]	23
RYSFK [5mer-649]	20
RKCIR [5mer-655]	15
RCAAR [5mer-652]	23
RNPGK [5mer-960]	14
RATPR [5mer-663]	31
KIEEK [5mer-662]	28
KTEVK [5mer-954]	23
KMKMK [5mer-949]	26

Binder	Binding affinity (RU)
RIPHR [5mer-968]	11
KDNDR [5mer-657]	22
KDADR [5mer-950]	22
RCNMK [5mer-661]	30
RKWKR [5mer-958]	11
KNADK [5mer-955]	14
KYTDR [5mer-964]	22
KKTHK [5mer-967]	26
KTMHK [5mer-952]	12
KPTWR [5mer-664]	17
RPEDK [5mer-650]	22
RNTVR [5mer-969]	27
KMEIR [5mer-965]	30
KEWNR [5mer-654]	27
KPCVK [5mer-670]	23
KFDVK [5mer-660]	11
RDCHR [5mer-667]	16
RDCER [5mer-957]	30
RYMGR [5mer-951]	18
KPNMK [5mer-959]	29
RAPNK [5mer-963]	24

These binders were tested against acetylcholine receptor (assay: SPR, peptide at 10 uM).

Binder	Binding affinity [RU]
REKIRR [6mer-2-1193]	43
RIDAKK [6mer-2-1185]	42
KEKFRR [6mer-2-1186]	27
KNCIKK [6mer-2-1197]	23
KYCDRK [6mer-2-1194]	35
KKADRK [6mer-2-1191]	35
RMSHRR [6mer-2-1198]	27
KACIRR [6mer-2-1190]	32
KHKNKR [6mer-2-1192]	40
KMTERK [6mer-2-1195]	25
RESKKR [6mer-2-1196]	39
RTADRK [6mer-2-1187]	36
RAPARR [6mer-2-1188]	22
KTAPKK [6mer-2-1189]	40
